The text below walks through data of a protein production outcome set (Wang et al. 2014).

This data set is described as follows: label from the status in PepcDB records.
For the sequence “MTIVWRDCFCVRSHSSNGLFMDVENNTAFWITGYQEARLGPVPEPTFPASETPYVIVRSRYSGISRGTESLVYNNQVPENEYQRMRAPFQEGEFPFPVKYGYASVGEVVDGPEALLGRNVFCLYPHQQRYAVPASAVLPLPAKVPAERAVLAANMETAVNGVWDGQPAVGDRIAVIGLGVVGLLVAWLVNRIPGVELIGVDTNEGRRSVAQALGVRFTTEPDIQNCDLVFHASGHPSGLAKALSLAGTDARVIELSWYGDTPVSVPLGHAFHPNRLTLKSSQVGQLSPERRPRWHHRRRLELALSMLSEPALDALISGESRFEQLPQVAGNILMPGADALCHRIVY”, the protein production result is “failed”.

As to “MTKANWTLSDARDTYAIEHWSDGYFNIAPEGEVVVCPQRGSVEGGVSIAAIARGVRAEGLSLPVLMRFPHILHDRVRLLTSAFGKARAAYHYGAGYTPVYPIKVNQQRNVIENILRAGGVGLEAGSKSELLAILALAESGTIICNGYKDRAYIRLALIGSRLGLRVFIVVEKLSELELVVSESEALGIAPQLGVRIRLSSISAGKWQNSGGEKSKFGLHAGEILKFLKRLERAGGLGWVRLMHFHMGSQVANINDVKTALREASRYYAELRRLGAPVDHVDVGGGLGIDYEGTHSVSDCSINYSVDEYAHSIVRAFSELCAEQGLPQPDLITEAGRAMSAHHAVLVTNVVDIEAATYDASPVSASVAQPLKDLEDLLRRVDSESVLGIYHDAEFDLAETRTMYVQGKIGLDQLAEAERLHATLCREVQQRLDIRLRAHRAVLDELNERLADKLFCNFSVFQSIPDAWAIDQIFPVMPLQRLGEEPTRRAVIQDMTCDSDGRINAYIDRQSIENTLRMHAPAPGEPYLIGFFLVGAYQEILGDMHNLFGDTHSVDVELDGAGGYTFTHTRRGDGADDLLRYVHIDPDELERSYRKKLIEADIPMHQRKQYESELIAGLSNYTYLEELEHHHHHH”, the protein production result is given as “not failed”.

Consider “MTKHRWSPVSSPPSRKPENVQVINLLPVAAGIIAILLALSFFGQVGAALLAITLALILATALNPVARWLERWMPRPAAGALTVLLVVLALVLLGLVAVPPLVSQGSKLTSSLPTSIPELEAQINALIDRYPAINSVLTEASVHRLIQQAGSFAANAAKGLPNIVSTFVGGVFMGLVMLVMVVFVLSNPVPLVNGVLGAVPPRHRLPAARALAQILKQLGGWGRATVLVMLVTGSCTALGLMLLKVDNWLIFGILAALGELVPNIGPIVATIPSVLFAAADDPQKGLYVALFVLVFQQVSGFVLGPFLLGGAGKLHPLSVTVGVLLFGSVFGIVGAFLTVPFLIIIKAIYQEFYLQDAPDIPDAVAMALISGKVEEQLDREEEQREAIDGQLQAARDEELQRQLEEGDLDLAAVLEHPESEPGNETTVEHSQTVISPTAQNPEQK”, for which the protein production result is reported as “failed”.

Regarding “MTKIPMFELEEAIDRQPLTVAPTLPVAQVLAVMERQHSSYVLLMESNQTLVGIFTERDLVRLTAIGITITSTPIEEVATSTVTTIQESDIYDVIRTLNLFRQYNVRHLPVVNATHQLIGIMTYEGIRRLLKPIDLLRLWRVSEVMVKSIICADRYQSALSLAELMSDRLISCVVITEKDPSGFPKPIGLVTERDILHLQVQGADLSQTIAADFMGSPPVFIQASDTLWQANQYMRARKIRRLLVVDERNIMVGLLTQTSLIHMIDPVEATLTIETLQQMVGERTVALDAANEKLERKALERKRAKAALQQQIYRERLVNRTAQRIRESLQLDEILVTTVSEVRQFLKAERVLIYRFQPNQQGAIAAESTDSNQTLIQGNAELEAILQEIDPTFYSCDRIHSIPDLQAQGLELTNATLLKRLQLRASLVAPIFAQEILWGLLIVGQNSQPRRWEKLEIDLLKQLATQVGIAIQQARLYAQLAAANQQLLRLAQSDGLTGLANRRHFDQCLDIEWQRAIREQHPLGLILIDIDCFKQFNDTYGHQAGDDCLKAVATALTQVIARPADLVARYGGEEFVVILPNTNEQGILQIAESMRSAVQQLKIPHRSSSVCSSVSLSLGAVTWVPTPHKSPEALIGAADQALYQAKELGRNRVCLGGVRLLETT”, the protein production entry is recorded as “failed”.

In the case of “MTKITVLSGKGGTGKTTVSVNMAKALSESYRVQLLDADVEEPNDHIFFNVDVSFEEPVHLMIPVVDNSVCIRCGECASTCQFGAISVFPSGTFVFESLCHGCGACSIMCPVNAISERPKEIGKIRFGTADGNISFGMGILNIGERTGVPVIRKLKKHIDEKADVVIVDAPPGTSCPVVESLRNTDFALLVTEPTAFGLHDLKLAVELTKEMGIPSGIVVNRYIPGNTIIEEFADEEGIPVLLKIPFKREIASLCAEGKLIVEAFQDMKKDFLELFEKIEVMVRLEHHHHHH”, the protein production entry was “not failed”.

As to “MTKKILTTPIKDEDLADIKAGDIIYLNGHIVTCRDVAHRRLIEGGRELPVNVAGGAILHAGPIVRPIKGTEDKFEMVSVGPTTSMRMEKFEKEFIAKTGVKLIVGKGGMGKGTEEGCMEHKALHCVFPAGCAVVAAVCVEEIEDAQWRDLGMPETLWVCRVKEFGPLIVSIDTHGNNLFEQNKVIFNQRKEIVADEICKHVSFIK”, the protein production result is “failed”.

With “MTKKIVLAGGTGFIGQYLQQRFEENGDEVVIISRRAPHVSWDDSEAVREALEGADMLVNLAGKSVNCRYNEQNKKAILQSRIDTTNILGEAVLACERPPKLWLNSSTATIYRHAEDRAMTEANGELGSGFSENVAKAWEEEFFSFQLPNTRQAALRISIVLGGDGGALTPYRYLTKFGLGGKQGSGKQMVSWIHVEDVFRVIRFIEEQEALEGVINCTSPQPVSNKVLTTAIRRAMNVKVGLPATAWMLEIGTFLLRTESELILKSRWVLPERLLQAGFTFQYETIDDALSEILVQSKSASHLLEHHHHHH”, the protein production result is “failed”.

As to “MTKKKAHKPGSATIALNKRARHEYFIEEEFEAGLALQGWEVKSLRAGKANISDSYVLLRDGEAFLFGANITPMAVASTHVVCDPTRTRKLLLNQRELDSLYGRVNREGYTVVALSLYWKNAWCKVKIGVAKGKKQHDKRSDIKEREWQVDKARIMKNAHR”, the protein production entry is “not failed”.

On to “MTKKVMIKGDIVDDQTAGFYQFFGMPAVSPSGVADILNDDSGDDDDDGDDEALEVDIASNGGDVFAASEIYTMLKNYAGNVTVNIQGLAASAASVIAMAGDHINISPTAQIMIHKAWSQPAGNADDLEHEASVLNGIDQSIASAYEAKTGMDQADLLQLMANETWLTASDAVDKGFADEIMFANDQQLQPVNAISHIPPKSAVNKLMNLIYKADKDKAKPSKKENTTNGQSAELRNSKLAILFEKNQKEAN”, for which the protein production entry is reported as “failed”.

With “MTKPLILASQSPRRKELLDLLQLPYSIIVSEVEEKLNRNFSPEENVQWLAKQKAKAVADLHPHAIVIGADTMVCLDGECLGKPQDQEEAASMLRRLSGRSHSVITAVSIQAENHSETFYDKTEVAFWSLSEEEIWTYIETKEPMDKAGAYGIQGRGALFVKKIDGDYYSVMGLPISKTMRALRHFDIRA”, the protein production entry is “not failed”.

Regarding “MTKPMIQIALDQTNLTDAVAVASNVASYVDVIEVGTILAFAEGMKAVSTLRHNHPNHILVCDMKTTDGGAILSRMAFEAGADWITVSAAAHIATIAACKKVADELNGEIQIEIYGNWTMQDAKAWVDLGITQAIYHRSRDAELAGIGWTTDDLDKMRQLSALGIELSITGGIVPEDIYLFEGIKTKTFIAGRALAGAEGQQTAAALREQIDRFWP”, the protein production result was “not failed”.

As for “MTKPSRPDAPGDGRPRRLPGVARCRRDAAGHPPAHRLRWLQLLIWLVPMLAALVSIGLVAGQVRGHGPAITLGFQDGEGIEPGKTPVRYNDVDIGMVTAVRLSTDLSRVLVTVQLNQEAADFATHGTRFWIVRPRAGMSGASGLGTLLSGTYIGADSGGSHEPETQFTGLENPPVVSLRQQGARFVLRGPSLGSVETGSPVYYRHVEVGQVTGTALDKDGAGVTIDVFIEAPYHRYVGRDTQWRHASGLGLRLDAAGLRVNAESFQTMLLGGIAFQPSPGQPAGDAVPDGTVFGLQSGDLDAADGPDGKPSTVVMHFDQSLHGLSVGAAVDFRGVQLGEVTNVGVAFDPKTHTFVMPVTLNLYPDRLGQAFRASSEYGDAAAGKALLRTLVARGLRGQLRTGNLLTNQLYVALDMFPNAPPVQLDLNGTLIALPTIPNTLDDLQAQVADLAKTLDRVPLDQLGTHLGQRLDNARRLFALTDAQLAPQARATLAAARQAFDAAQAIAQSPLLRPADLSRVREQLGQTLRALDTLTDTVAQHPESLVWGPAVDTRTAQSP”, the protein production entry is on record as “failed”.

With “MTKQFHCVTVGNPNAGKSTLFNALTGANQQVGNWSGVTVEKKTGHFTLNGADVYLTDLPGIYDLLPAGNSCDCSLDEQIAQQYLAEQRVDGIINLVDATNIERHLYLTAQLRELSIPMVVVLNKIDAAIKRGICVDLTKMSQELGCPVIGVCSRDPADVAKVQAQVLDLLQGRVSEAPLLLDYDKQIEAGVQLLCRKDPNLSRGRALAMLGNGSGCGSCKNAQLQDEVNTCTQQIAQQGHDIEVMVATTRFNFVERVFQSSVKADGFLTLSDKLDKLVLHPVLGIPVFLFVMYLMFMFSINIGSAFIDFFDVFAGALLVDHFGALLTNIGAPAWVVTILAGGVGQGIQTVSTFIPVIAALFLGLSILESSGYMARAAFVVDGLMRRIGLPGKAFVPMIVGFGCSVPAIMATRTLGSERERIVTGMMAPFMSCGARLPVYALFAAAFFPDSGQNLVFLLYVIGIFAAIGTGLLLRSTLLPGTSSAVVMELPSYELPKFKAVMVRTGKRTKSFILGAGKTIVLVVTLLNFINAIGVDGSFGHEDSQASLLSVASQKVTPIFAPMGIEQDNWPATVGIITGIFAKEAVVGTLNSLYTNATPEGSELTPLADSFNEALATIPANLFGLDLEDPLKLSVGDVSNTEVAAETQGVATSTFSALQSGFTTKVAAFSYLLFILLYTPCVAAMGALVNEFGTRWATFAATWTFALAYGSATVVYQAATFAAHPLQSSLWIGFFLVALVMFYLWLKRKGRRTQQIIPGVRIITE”, the protein production entry is “failed”.

On to “MTKTALVLGTVATLAVASVAAPAPAEARNGIGPFIGGLAAGALIAGVASNAYAYGPGYGYYGGGPYYGGGPYYGYAPRYVGYYGGPAYYGGGYGWGGPRYYRPRPVYYGYRSYYRPYRGGYYGAPVIRAGYGPGWGGHRHWHHHRHW”, for which the protein production result was “failed”.

With “MTKTFKTLDDFLGTHFIYTYDNGWEYEWYAKNDHTVDYRIHGGMVAGRWVTDQKADIVMLTEGIYKISWTEPTGTDVALDFMPNEKKLHGTIFFPKWVEEHPEITVTYQNEHIDLMEQSREKYATYPKLVVPEFANITYMGDAGQNNEDVISEAPYKEMPNDIRNGKYFDQNYHRLNK”, the protein production entry is reported as “not failed”.

On to “MTKTLVIIAHPDMARSRVNAAWAEALRRAGDITLRDLSALYPDGMIDGAVERSLLEAHDRIILQFPLTWYSCPPILSAWQIAILTRGWAYGPGGRALRLKTLGVALSTGSNGRDYQPDGRYGRTLEDVTVPFELMARHTGMHYLPPFTLTGVRECDDAAVAASARAYLDHVRTAKPRILASGRDDDRARTVYPLEAGAR”, for which the protein production result is given as “failed”.

For “MTKVNPYAAGARGLCPHCGEGYLFDGFLKVAPRCEACGFELGKHETGDGAATFVILIAGAICAFGALFSMFAWNWPVWVSLVVWLPAVVAISLGLMRPAKGLMVAAQIAQKASEAGRDHV”, the protein production entry was “failed”.

“MTLAALCQGVLERLDPRQPGRQLVALSGAPGSGKSTLSNPLAAALSAQGLPAEVVPMDGFHLDNRLLEPRGLLPRKGAPETFDFEGFQRLCHALKHQERVIYPLFDRARDIAIAGAAEVGPECRVAIIEGNYLLFDAPGWRDLTAIWDVSIRLEVPMADLEARLVQRWLDHGLNHDAAVARAQGNDLANARAIEAARLPADLTWPQA”: the protein production result is reported as “not failed”.
